Source: patent publication US20230399388A1 (Sanofi, published 2023)
Where two headings read alike, the source gives them in different places. Primed or numbered codes have the meaning given here. Ends that are not written are not given here. Biotin′ = not defined here

T1: KRPPGFSPFR-biotin
T1 construct: also called KD-b; KD-biotin
T1 peptide: KRPPGFSPFR-biotin

T2: RRPPGFSPF-biotin (mouse)
T2 construct: also called DAKLP-b; DAKLP-biotin
T2 peptide: RRPPGFSPF-{Biotin′}

T3: RRPPGFSPFR-biotin (mouse)
T3 construct: also called KLP-b; KLP-biotin
T3 peptide: RRPPGFSPFR-biotin

T4: kallidin
T4 peptide: KRPPGFSPFR

T5: desArg10kallidin like peptide (mouse)
T5 peptide: RRPPGFSPF


What was measured:
…-biotin [1] = molecular target: T6, …-biotin (C-terminal biotin); assay: Biacore, biotin-peptide on SA chip;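 for kon: purified antibodies injected as twofold dilutions from 0.1 to 10 nM in HBS-EP over streptavidin-captured biotinylated BKR1 or BKR2 ligand peptides, with a random-peptide flow cell as reference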
T6 construct: also called DAKD-b; DAKD-biotin
Excerpt: (§1) For antibody binding kinetics, the instruments used were the BIACORE 2000 or BIACORE 3000 (GE Healthcare), designed for biomolecular interaction analysis (BIA) in real time. The sensor chip used was SA chip (GE Healthcare) with streptavidin covalently immobilized on a carboxymethylated dextran matrix. Each sensor chip has four parallel flow cells (Fc). Every biotinylated BKR1 or BKR2 ligand peptides were immobilized to one of the flow cells 2 to 4 (Fc2 to Fc4) in the SA chip for binding dissociation rate screening and selectivity screening. Flow cell 1 (Fc1) was reserved and immobilized with a random peptide (biotinylated at one terminus) with equal or close peptide length in comparison to the testing ligand peptides as the negative control. In screening assays, cell culture supernatants of the hybridoma clones selected through primary screening of transiently expressed humanized variants were injected over immobilized peptides. Hybridoma cell culture media was also injected over the chip surface as blank to establish a baseline. After subtracting signals of Fc1 and blank buffer runs, the dissociation rate of the antibodies from the supernatants to each peptide was analyzed and ranked using BIAevaluation software. […] In kinetics analysis, the corresponding biotin-peptides identified in screening for the testing antibody were immobilized in Fc2 to Fc4 while Fc1 with a random peptide used as reference cell. Each purified antibody selected from screenings were made into a series of two fold dilutions in running buffer (1×HBS-EP buffer, GE Healthcare) between 0.1 to 10 nM. Binding association rate, dissociation rate and the overall affinity were calculated in BIAevaluation.

KRPPGFSPFR-biotin [2] = molecular target: T1, KRPPGFSPFR-biotin; assay: Biacore, biotin-peptide on SA chip;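 for kon: purified antibodies injected as twofold dilutions from 0.1 to 10 nM in HBS-EP over streptavidin-captured biotinylated BKR1 or BKR2 ligand peptides, with a random-peptide flow cell as reference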
Excerpt: as §1

RRPPGFSPF-biotin [3] = molecular target: T2, RRPPGFSPF-biotin; assay: Biacore, biotin-peptide on SA chip;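 for kon: purified antibodies injected as twofold dilutions from 0.1 to 10 nM in HBS-EP over streptavidin-captured biotinylated BKR1 or BKR2 ligand peptides, with a random-peptide flow cell as reference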
Excerpt: as §1

RRPPGFSPFR-biotin [4] = molecular target: T3, RRPPGFSPFR-biotin; assay: Biacore, biotin-peptide on SA chip;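 for kon: purified antibodies injected as twofold dilutions from 0.1 to 10 nM in HBS-EP over streptavidin-captured biotinylated BKR1 or BKR2 ligand peptides, with a random-peptide flow cell as reference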
Excerpt: as §1

…-biotin [5] = molecular target: T6, …-biotin; assay: Biacore, biotin-peptide on SA chip; remark: listed apart in the source
KRPPGFSPFR-biotin [6] = molecular target: T1, KRPPGFSPFR-biotin; assay: Biacore, biotin-peptide on SA chip
kallidin [7] = molecular target: T4, kallidin; assay: cell-based or functional assay
…-biotin [8] = molecular target: T6, …-biotin; assay: Biacore, biotin-peptide on SA chip; remark: listed apart in the source
Excerpt: as §1

KRPPGFSPFR-biotin [9] = molecular target: T1, KRPPGFSPFR-biotin; assay: Biacore, biotin-peptide on SA chip
Excerpt: as §1

RRPPGFSPF-biotin [10] = molecular target: T2, RRPPGFSPF-biotin; assay: Biacore, biotin-peptide on SA chip
Excerpt: as §1

RRPPGFSPFR-biotin [11] = molecular target: T3, RRPPGFSPFR-biotin; assay: Biacore, biotin-peptide on SA chip
Excerpt: as §1

desArg10kallidin [12] = assay: cell-based or functional assay
[13] = molecular target: T5, desArg10kallidin like peptide; assay: cell-based or functional assay
…-biotin [14] = molecular target: T7, …-biotin (C-terminal biotin); assay: ELISA, biotin-peptide on streptavidin plate
T7 construct: also called BK-b

[15] = molecular target: T8, biotin-… (N-terminal biotin); assay: ELISA, biotin-peptide on streptavidin plate
T8 construct: also called b-BK

kallidin [16] = molecular target: T4, kallidin; assay: cell-based or functional assay
desArg10kallidin [17] = assay: cell-based or functional assay; remark: listed apart in the source
biotin-RPPGFSPF = molecular target: T9, biotin-RPPGFSPF (N-terminal biotin); assay: ELISA, biotin-peptide on streptavidin plate
T9 construct: also called b-DABK; biotin-DABK

RPPGFSPF-biotin = molecular target: T10, RPPGFSPF-biotin (C-terminal biotin); assay: ELISA, biotin-peptide on streptavidin plate
T10 construct: also called DABK-b

| Binder | Kd (…-biotin [1]) [nM] | koff (…-biotin [1]) [s⁻¹] | kon (…-biotin [1]) [M⁻¹ s⁻¹] | Kd (KRPPGFSPFR-biotin [2]) [nM] | koff (KRPPGFSPFR-biotin [2]) [s⁻¹] | kon (KRPPGFSPFR-biotin [2]) [M⁻¹ s⁻¹] | Kd (RRPPGFSPF-biotin [3]) [nM] | koff (RRPPGFSPF-biotin [3]) [s⁻¹] | kon (RRPPGFSPF-biotin [3]) [M⁻¹ s⁻¹] | Kd (RRPPGFSPFR-biotin [4]) [nM] | koff (RRPPGFSPFR-biotin [4]) [s⁻¹] | kon (RRPPGFSPFR-biotin [4]) [M⁻¹ s⁻¹] | Mean Molar Ratio, ligand depletion, calcium mobilization in MRC5 cells (kallidin [7]) [molar ratio] | Kd (…-biotin [8]) [nM] | koff (…-biotin [8]) [s⁻¹] | Kd (KRPPGFSPFR-biotin [9]) [nM] | koff (KRPPGFSPFR-biotin [9]) [s⁻¹] | Mean Molar Ratio, ligand depletion, calcium mobilization in HEK mBKR1 cells (desArg10kallidin [12]) [molar ratio] | Mean Molar Ratio, ligand depletion, calcium mobilization in HEK mBKR1 cells [13] [molar ratio] | further results |
| --- | --- | --- | --- | --- | --- | --- | --- | --- | --- | --- | --- | --- | --- | --- | --- | --- | --- | --- | --- | --- |
| humanized F151 variant HC2a/LC2a (antibody, human IgG1, V domains shown, also called LC2axHC2a) VH: QIQLVQSGAEVKKPGASVKVSCKASGYSFTDYNIYWVKQSPGKGLEWIGYFDPYNGNTGYNQKFRGKATLTVDKSSSTAYMHLSSLTSEESAVYYCANYYRYDDHAMDYWGQGTSVTVSS VL: DIVMTQSPSSLSASVGDRVTISCKSSQSLLYSSNQKNYLAWYQQKPGKSPKPLIYWASTRESGVPDRFSGSGSGTDFTLTISSVQAEDLATYYCQQYYSYPWTFGGGTKLEIK | 0.0183 | 1.22e-05 | 666000 | 0.00871 | 6.12e-06 | 703000 | 0.0138 | 5.67e-06 | 410000 | 0.0434 | 2.68e-05 | 615000 |  |  |  |  |  |  |  |  |
| humanized F151 variant HC2b/LC2a (antibody, human IgG1, V domains shown, also called LC2axHC2b) VH: QIQLVQSGAEVKKPGASVKVSCKASGYSFTDYNIYWVKQSPGKGLEWIGYFDPYNGNTGYNEKFRGKATLTVDKSSSTAYMHLSSLTSEESAVYYCANYYRYDDHAMDYWGQGTSVTVSS VL: DIVMTQSPSSLSASVGDRVTISCKSSQSLLYSSNQKNYLAWYQQKPGKSPKPLIYWASTRESGVPDRFSGSGSGTDFTLTISSVQAEDLATYYCQQYYSYPWTFGGGTKLEIK | 0.0257 | 1.05e-05 | 417000 | 0.00472 | 1.66e-06 | 375000 | 0.0297 | 1.3e-05 | 446000 | 0.00576 | 2.2e-06 | 401000 |  |  |  |  |  |  |  |  |
| humanized F151 variant HC2c/LC2b (antibody, human IgG1, V domains shown, also called LC2bxHC2c) VH: QIQLVQSGAEVKKPGASVKVSCKASGYSFTDYNIYWVKQSPGKGLEWIGYFDPYNGNTGYNQKFRGKATLTVDKSSSTAYMHLSSKTSEESAVYYCANYYRYDDHAMDYWGQGTSVTVSS VL: DIVMTQSPSSLSASVGDRVTISCKSSQSLLYSSNQKNYLAWYQQKPGKSPKPLIYWASTRESGVPDRFSGSGSGTDFTLTISSVQAEDKATYYCQQYYSYPWTFGGGTKLEIK | 0.0901 | 4.34e-05 | 481000 | 0.0174 | 9.08e-06 | 564000 | 0.0121 | 1.1e-05 | 903000 | 0.0198 | 1.02e-05 | 516000 |  |  |  |  |  |  |  |  |
| humanized F151 variant HC1/LC1 (antibody, V domains shown, also called LC1xHC1) VH: EIQLVQSGPEVKKPGASVKVSCKASGYSFTDYNIYWVKQSPGKSLEWIGYFDPYNGNTGYNQKFRGKATLTVDKSSSTAFMHLSSLTSEDSAVYYCANYYRYDDHAMDYWGQGTSVTVSS VL: DIVMSQSPSSLAASVGDRVTMSCKSSQSLLYSSNQKNYLAWYQQKPGKSPKPLIYWASTRESGVPDRFTGSGSGTDFTLTISSVQAEDLAIYYCQQYYSYPWTFGGGTKLEIK | 0.0145 | 6e-06 | 416000 | 0.000394 | 1.74e-07 | 424000 | 0.016 | 7.96e-06 | 500000 | 0.00554 | 2.67e-06 | 481000 |  |  |  |  |  |  |  |  |
| C63 (antibody, V domains shown, Murine hybridoma antibody; Family 2) VH: EVKLEESGGGLVQPGGSMKLSCVASGFTFSNYWMNWVRQSPEKGLEWVAEIRSKSNNYATHYAESVKGRFTISRDDSKSSVYLQMNNLRAEDTGIYYCIGEDYGGDYWGQGTSVTVSS VL: DIVMSQSPSSLAVSVGEKVTMSCKSSQSLLYSSDQRNYLAWYQQRSGQSPKLLIYWASTRESGVPDRFTGSGSGTDFTLTISSVKAEDLAVYYCQQYYSYPYTFGGGTKLEIK |  |  |  |  |  |  |  |  |  |  |  |  | 0.23 | 0.142 | 9.36e-05 | 0.221 | 0.0001 | 0.08 | 5.85 | Kd (…-biotin [5]): 0.142 nM; Kd (KRPPGFSPFR-biotin [6]): 0.221 nM; binding result (RRPPGFSPF-biotin [10]): no binding; binding result (RRPPGFSPFR-biotin [11]): no binding; binding result (…-biotin [14]): no binding; binding result [15]: no binding |
| humanized F151 variant HC3a/LC3a (antibody, human IgG1, V domains shown, also called hF151) VH: QIQLVQSGAEVKKPGASVKVSCKASGYSFTDYNIYWVRQAPGQGLEWIGYFDPYNGNTGYNQKFRGRATLTVDKSTSTAYMELRSLRSDDTAVYYCANYYRYDDHAMDYWGQGTLVTVSS VL: not shown | 0.0253 | 1.28e-05 | 506000 | 0.00678 | 2.95e-06 | 427000 | 0.0305 | 1.42e-05 | 465000 | 0.00106 | 5.43e-07 | 502000 |  |  |  |  |  |  |  |  |
| humanized F151 variant HC3b/LC3b (antibody, human IgG1, V domains shown, also called LC3bxHC3b) VH: QVQLVQSGAEVKKPGASVKVSCKASGYSFTDYNIYWVRQAPGQGLEWMGYFDPYNGNTGYNQKFRGRVTMTTDTSTSTAYMELRSLRSDDTAVYYCANYYRYDDHAMDYWGQGTLVTVSS VL: not shown | 0.135 | 5.15e-05 | 385000 | 0.0144 | 3.02e-06 | 251000 | 40.5 | 0.00276 | 70400 | 0.526 | 0.000272 | 539000 |  |  |  |  |  |  |  |  |
| I22 (antibody, V domains shown, Murine hybridoma antibody; Family 1) VH: EVQLQQSGAELVRSGASVKLSCTASGFNIKDYYMHWVKQRPEQGLEWIGWVDPENGDSDYAPKFQGKATMTADTSSNTVYLQFSSLTSEDTAVYYCNAFEYDGNYSPLDFWGQGTSVTVSS VL: DIVMTQSPSSLSVSAGEKVTMSCKSSQSLLNSGNQKNYLAWYQQKPGQPPKLLIYGASTRESGVPDRFTGSGSGTDFTLTISSVQAEDLAVYYCQNDHSYPLTFGAGTKLELK |  |  |  |  |  |  |  |  |  |  |  |  | 0.22 | 0.217 | 0.000319 | 0.0044 | 2.1e-05 | 0.07 | 0.21 | FLIPR (nM), KD (15 nM) (kallidin [16]): 25 nM; FLIPR (nM), DAKD (50 nM) (desArg10kallidin [17]): 9.4 nM; Kd (RRPPGFSPF-biotin [10]): ≤ 0.00183 nM; koff (RRPPGFSPF-biotin [10]): ≤ 1e-06 s⁻¹; Kd (RRPPGFSPFR-biotin [11]): 0.00182 nM; koff (RRPPGFSPFR-biotin [11]): 1.03e-05 s⁻¹ |
| I54 (antibody, V domains shown, Murine hybridoma antibody; Family 1; also called 154) VH: EVQLQQSGAELVRSGASVKLSCTASGFNIKDYYMHWVKQRPEQGLEWIGWVDPENGDSDYAPKFQGKATMTADTSSNTVYLQFSSLTSEDTAVYYCNAFEYDGNYSPLDFWGQGTSVTVSS VL: not shown |  |  |  |  |  |  |  |  |  |  |  |  | 0.3 | 0.00953 | 3.06e-05 | 0.0112 | 3.88e-05 | 0.15 | 0.35 | FLIPR (nM), KD (15 nM) (kallidin [16]): 30 nM; FLIPR (nM), DAKD (50 nM) (desArg10kallidin [17]): 8.1 nM; Kd (RRPPGFSPF-biotin [10]): 0.0117 nM; koff (RRPPGFSPF-biotin [10]): 5.66e-05 s⁻¹; Kd (RRPPGFSPFR-biotin [11]): 0.00956 nM; koff (RRPPGFSPFR-biotin [11]): 6.04e-05 s⁻¹; binding result (biotin-RPPGFSPF): binds; binding result (RPPGFSPF-biotin): binds |
